For orientation: EC50 means the midpoint of the concentration-response curve.

T1: recombinant histidine-tagged canine interleukin-13 (cIL-13) (canine, UniProt Q9N0W9 19-131, N-linked glycans attached to asparagine residues at positions 38, 48, 56, and 71)
T1 sequence: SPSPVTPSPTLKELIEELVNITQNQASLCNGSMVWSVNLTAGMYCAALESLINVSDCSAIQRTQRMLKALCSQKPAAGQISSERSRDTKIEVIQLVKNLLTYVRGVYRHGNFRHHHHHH

B1: 32A10-#20 mouse monoclonal antibody (antibody, V domains shown)
VH: EVQLQQSGPELVKPGASVKVSCKTSGYSFTDYPIYWVRQSHGESLEWIGYIDPYNGGTTYNQNFKDKATLTVDKSSSTAFMHLNSLTSEDSAVYFCATAVVATDVMENWGQGTSVTVSS
VL: DIVLTQSQKFMSTSVGDRVSITCKASQNVRNAVAWFQQKPGQSPKALIYLASNRYTGVPDHFTGSGSGTDFTLTISNVQSEDLADYFCLQHWNYPLTFGAGTKLELK
notes: also called Mouse 32A10; Parental antibody (Mouse 32A10)
B2: Ab4 (antibody, V domains shown)
VH: EVQLVQSGAEVKKPGASVKVSCKTSGYTFIDYPMYWVRQAPGAGLEWMGYIDPYNGATSYNQNFKGRVTLTADKSTSTAYMELSSLRAGDIAVYYCATAVVATDVMENWGQGTLVTVSS
VL: EIVMTQSPASLSLSQEERVTITCRASQNVRNALAWYQQKPGQAPKLLIYLTSNRYTGVPSRFSGSGSGTDFTFTISSLEPEDVAVYYCLQHWNYPLTFGAGTKVELK
notes: Caninized antibody
B3: Ab21 (antibody, V domains shown)
VH: B2 VH with K12V, T28S, I30T, M34I, M48I, A57G, S59T, G66D
VL: B2 VL with M4L, R24K, L33V, Y36F, L46A, T51A, F73L, V85D, Y87F
notes: Caninized antibody
B4: Ab22 (antibody, V domains shown)
VH: B2 VH with K12V, T28S, I30T, M34I, M48I, A57G, S59T, G66D
VL: DIVLTQTPLSLSVSPGETASISCKASQNVRNAVAWFRQKPGQSPQALIYLASNRYTGVPDRFSGSGSGTDFTLRISRVEAEDTGDYFCLQHWNYPLTFGAGTKVELK
notes: Caninized antibody
B5: Ab5 (antibody, V domains shown)
VH: B2 VH with N63K, K65Q, K74T, T98R
VL: B2 VL
notes: Caninized antibody
B6: Ab23 (antibody, V domains shown)
VH: B2 VH with K12V, T28S, I30T, M34I, M48I, A57G, S59T, G66D
VL: B4 VL with L4M, V29L, V33L, A51V, T56P, D85V, F87Y, N93Q
notes: Caninized antibody
B7: Ab24 (antibody, V domains shown)
VH: B2 VH
VL: B4 VL
notes: Caninized antibody
B8: Ab3 (antibody, V domains shown)
VH: B2 VH with K12V, T28S, I30T, M34I, M48I, A57G, S59T, G66D
VL: B2 VL
notes: Caninized antibody
B9: Ab2 (antibody, V domains shown)
VH: B2 VH with N63K, K65Q, K74T, T98R
VL: B2 VL with M4L, R24K, L33V, Y36F, L46A, T51A, F73L, V85D, Y87F
notes: Caninized antibody
B10: Ab10 (antibody, V domains shown)
VH: B2 VH
VL: B4 VL with L4M, V29L, V33L, A51V, T56P, D85V, F87Y, N93Q
notes: Caninized antibody
B11: Ab9 (antibody, V domains shown)
VH: B2 VH with N63K, K65Q, K74T, T98R
VL: B4 VL
notes: Caninized antibody
B12: Ab1 (antibody, V domains shown)
VH: B2 VH
VL: B2 VL with M4L, R24K, L33V, Y36F, L46A, T51A, F73L, V85D, Y87F
notes: Caninized antibody
B13: Ab6 (antibody, V domains shown)
VH: B2 VH with K12V, T28S, I30T, M34I, M48I, A57G, S59T, G66D
VL: B2 VL with N28S, N31S, L50G, N93S
notes: Caninized antibody
B14: Ab8 (antibody, V domains shown)
VH: B2 VH with N63K, K65Q, K74T, T98R
VL: B2 VL with N28S, N31S, L50G, N93S
notes: Caninized antibody
B15: Ab11 (antibody, V domains shown)
VH: B2 VH with N63K, K65Q, K74T, T98R
VL: B4 VL with L4M, V29L, V33L, A51V, T56P, D85V, F87Y, N93Q
notes: Caninized antibody
B16: Ab12 (antibody, V domains shown)
VH: B2 VH with K12V, T28S, I30T, M34I, M48I, A57G, S59T, G66D
VL: DIVMTQTPLSLSVSPGETASISCKASQSLRSALAWFRQKPGQSPQRLIYLVSNRYPGVPDRFSGSGSGTDFTLRISRVEAEDTGVYYCLQHWQFPLTFGAGTKVELK
notes: Caninized antibody
B17: Ab14 (antibody, V domains shown)
VH: B2 VH with N63K, K65Q, K74T, T98R
VL: B16 VL
notes: Caninized antibody
B18: Chimeric 32A10 CO (antibody, V domains shown)
VH: B1 VH with E1Q, Q5K, N84Y
VL: B1 VL
notes: also called Chimeric antibody (CO type)

Where a chain is given by its changes, count along the chain named. Values joined by “and” are separate entries in the source; they are usually repeats but may differ in a detail not shown here. Equal values may be shown once.

One test deals with T1, recombinant histidine-tagged canine …. The experiment in a line: cell-based or functional assay.
In the case of B1, the “inhibition of IL-13-dependent TF-1 cell proliferation, IC50” value lay within 2.9 to 4.2 nM.

The target is the same in a further test. Nature of the test: cell-based or functional assay. This is another data set of the same source.
As to B1, the “TF-1 cell proliferation inhibition IC50 (Average)” value was 437 ng/ml and 2.91 nM; the “TF-1 cell proliferation inhibition IC50 (Test 1)” value is 494 ng/ml and 3.29 nM; the “TF-1 cell proliferation inhibition IC50 (Test 2)” value is 492 ng/ml and 3.28 nM; the “TF-1 cell proliferation inhibition IC50 (Test 3)” value was 325 ng/ml and 2.17 nM.

For the next test the target is unchanged. The experiment in a line: cell-based or functional assay. This is another data set of the same source.
Turning to B1, the “Inhibitory Activity on TF-1 Cell Proliferation IC50” value turned out to be 3.97 nM.

A further test has the same target. The experiment in a line: cell-based or functional assay. This is another data set of the same source.
With B2, the “TF-1 cell proliferation inhibition IC50” value came out at 71.5 nM.
Same read-out and setting: the result for B3 reads 1.13 nM; that for B4, 0.98 nM.
Same read-out and setting: then B5, with 34.2 nM; and B6, with 35.2 nM.
Same read-out and setting: the result for B7 reads 4.09 nM.
B8: the “TF-1 cell proliferation inhibition IC50” value is 52.7 nM.

The next test has the same target. Nature of the test: ELISA, cIL-13-coated plate. A general note: In an ELISA, binding on a coated surface is turned into a signal by an enzyme label.
In the case of B1, the EC50 is 0.0694 µg/mL and 0.463 nM.

A further test shares this target. Nature of the test: ELISA, His-tagged cIL-13 on nickel plate. The protocol:
A conventional ELISA method was used to assess the antigen reactivity of the caninized antibodies. The inventors of the present invention coated 96-well nickel plates with His-tagged cIL-13 at a concentration of 1 μg/mL and incubated the plates at room temperature for 1 hour. Wells were washed three times using 200 μL of wash buffer per well; the wash buffer consisted of 1×PBS containing 0.1% Tween-20. In one embodiment of the present disclosure, diluted antibodies were added to the wells at 100 μL per well and incubated again at room temperature for 1 hour. The dilution buffer used was a 1:1 mixture of 25 mL of 1× casein solution and 25 mL of 1×PBS. Next, 50 μL of HRP-conjugated goat anti-human IgG was diluted in 10 mL of dilution buffer and dispensed at 100 μL per well, followed by incubation at room temperature for 1 hour. The wells were then washed three times with 200 μL of wash buffer. TMB substrate (50 μL per well) was added. The plates were incubated at room temperature for 10 minutes. The reaction was stopped by adding 50 μL per well of 1 N sulfuric acid as a stop solution, and absorbance was measured at 450 nm using a spectrophotometer.
Regarding B2, the EC50 is 0.0572 µg/mL.
Still for that read-out and setting: the result for B3 reads 0.122 µg/mL.
For B9, the EC50 was found to be 0.0782 µg/mL.
Turning to B4, the 50% effective concentration (EC50) was 0.137 µg/mL.
On the same count and under the same terms, then B10, with 0.0819 µg/mL; and B11, with 0.0926 µg/mL; and B5, with 0.0765 µg/mL.
On the same count and under the same terms, then B12, with 0.0564 µg/mL; and B6, with 0.108 µg/mL; and B7, with 0.134 µg/mL.
The same measure, in the same setting: the result for B8 reads 0.0459 µg/mL.
For the molecule B13, the EC50 came to 0.246 µg/mL.
On the same count and under the same terms, then B14, with 12.4 µg/mL.
Same read-out and setting: the result for B15 reads 0.111 µg/mL; that for B16, 4.39 µg/mL.
The same measure, in the same setting: then B17, with 1.78 µg/mL.

Another test shares this target. Nature of the test: ELISA, His-tagged cIL-13 on nickel-coated plate. The protocol: In one embodiment of the present disclosure, recombinant canine IL-13 (cIL-13) protein with a histidine tag was dispensed onto nickel-coated plates (Thermo Fisher, #15442) at 100 ng/100 μL per well and incubated at room temperature for 1 hour. The plates were then washed three times with 1×PBST, and serial dilutions of the chimeric antibodies in 1×PBS were added and incubated at room temperature for 1 hour to allow antigen-antibody binding. After three washes with 1×PBST, an HRP-conjugated secondary antibody that cross-reacts with canine antibodies was diluted 1:100 in casein buffer and added at 100 μL per well, followed by incubation at 37° C. for 30 minutes. The HRP-conjugated secondary antibody used may be Jackson ImmunoResearch, #115-036-071, and the casein buffer may be Thermo Fisher Scientific, #37528; however, these examples are not intended to limit the scope of the present disclosure. After another three washes with 1×PBST, TMB was added to initiate color development, and the reaction was terminated by the addition of an equal volume of 1.0 N sulfuric acid.
Turning to B1, the EC50 is 0.218 µg/mL and 1.45 nM.
Still for that read-out and setting: then B18, with 0.162 µg/mL and 1.08 nM.
